Consider two molecules from patent publication US20180194839A1 (Novartis, published 2018).

Where a chain is given by its changes, count along the chain named. Numbers in names are those of the source.

The target of test [1] is T1, recombinant human IL-17A (SEQ ID NO: 76) (human, UniProt Q16552 24-155, limits assumed).
T1 construct: homodimer; also called huIL-17A; rhuIL-17A
T1 sequence: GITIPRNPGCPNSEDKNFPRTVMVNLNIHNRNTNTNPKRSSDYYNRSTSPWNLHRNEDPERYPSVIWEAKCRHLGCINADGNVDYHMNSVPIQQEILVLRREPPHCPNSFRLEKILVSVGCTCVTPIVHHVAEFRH
The test can be described thus: ELISA, coated cytokine, Ab 10 µg/ml. (In general: An ELISA detects its analyte on a solid surface through an enzyme-linked reagent.)

For test [2], the target named is T2, recombinant human IL-1β (Novartis) (human, UniProt P01584 117-269).
T2 construct: also called huIL1β
The test can be described thus: ELISA, coated cytokine, Ab 10 µg/ml.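 Also: antibodies incubated 3 h at room temperature on the coated wells, binding detected with alkaline phosphatase-conjugated anti-IgG secondary antibodies matching the species of each test antibody.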

The target in test [3] is T3, recombinant human IL-4 (R&D Systems Cat#204-IL/CF) (human, UniProt P05112 25-153).
T3 construct: also called huIL-4
T3 sequence (looked up): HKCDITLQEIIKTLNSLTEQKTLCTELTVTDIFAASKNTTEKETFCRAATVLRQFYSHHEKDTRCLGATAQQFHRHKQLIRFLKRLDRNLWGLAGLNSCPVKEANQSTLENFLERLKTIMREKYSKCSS
Nature of the test: ELISA, coated cytokine, Ab 10 µg/ml.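 Also: antibodies incubated 3 h at room temperature on the coated wells, binding detected with alkaline phosphatase-conjugated anti-IgG secondary antibodies matching the species of each test antibody.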

The target in test [4] is T4, recombinant human IL-8 (R&D Systems Cat#208-IL-010/CF) (human, UniProt P10145 28-99).
T4 construct: also called huIL-8
T4 sequence (looked up): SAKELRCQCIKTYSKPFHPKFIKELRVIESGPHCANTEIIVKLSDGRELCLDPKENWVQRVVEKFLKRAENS
The test can be described thus: ELISA, coated cytokine, Ab 10 µg/ml.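 Also: antibodies incubated 3 h at room temperature on the coated wells, binding detected with alkaline phosphatase-conjugated anti-IgG secondary antibodies matching the species of each test antibody.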

The target of test [5] is T5, recombinant human IL-13 (Novartis) (human, UniProt P35225 35-146, limits assumed).
T5 construct: also called huIL-13
Nature of the test: ELISA, coated cytokine, Ab 10 µg/ml.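 Also: antibodies incubated 3 h at room temperature on the coated wells, binding detected with alkaline phosphatase-conjugated anti-IgG secondary antibodies matching the species of each test antibody.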

Test [6] concerns the target T6, recombinant human IL-18 (MBL Cat# B003-5) (human, UniProt Q14116 37-193).
T6 construct: also called huIL-18
T6 sequence (looked up): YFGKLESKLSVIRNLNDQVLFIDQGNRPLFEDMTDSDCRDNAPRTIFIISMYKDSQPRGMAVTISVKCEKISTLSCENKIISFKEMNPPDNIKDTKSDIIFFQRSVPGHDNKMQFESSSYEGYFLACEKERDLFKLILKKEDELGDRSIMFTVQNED
The test can be described thus: ELISA, coated cytokine, Ab 10 µg/ml.

Test [7] concerns the target T7, recombinant human IL-23 (R&D Systems Cat#1290-IL-010/CF) (human, UniProt Q9NPF7 20-189; P29460 23-328).
T7 construct: also called huIL-23
T7 sequence (looked up) 1: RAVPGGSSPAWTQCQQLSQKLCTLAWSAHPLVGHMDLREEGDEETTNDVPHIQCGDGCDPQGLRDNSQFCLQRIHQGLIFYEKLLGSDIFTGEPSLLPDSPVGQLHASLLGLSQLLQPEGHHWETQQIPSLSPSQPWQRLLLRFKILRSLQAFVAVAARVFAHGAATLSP
T7 sequence (looked up) 2: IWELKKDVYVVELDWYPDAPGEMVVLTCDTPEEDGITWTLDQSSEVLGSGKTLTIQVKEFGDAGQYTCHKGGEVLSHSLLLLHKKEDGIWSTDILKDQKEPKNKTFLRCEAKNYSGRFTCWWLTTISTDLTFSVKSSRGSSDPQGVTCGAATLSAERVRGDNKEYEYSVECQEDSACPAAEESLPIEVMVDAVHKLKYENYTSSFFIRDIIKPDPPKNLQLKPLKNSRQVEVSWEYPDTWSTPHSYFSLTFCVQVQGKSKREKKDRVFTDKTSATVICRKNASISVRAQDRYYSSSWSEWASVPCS
The test can be described thus: ELISA, coated cytokine, Ab 10 µg/ml.

Test [8] deals with T8, recombinant human IFNγ (Roche) (human, UniProt P01579 24-166, limits assumed).
T8 construct: also called huIFNγ
T8 sequence (looked up): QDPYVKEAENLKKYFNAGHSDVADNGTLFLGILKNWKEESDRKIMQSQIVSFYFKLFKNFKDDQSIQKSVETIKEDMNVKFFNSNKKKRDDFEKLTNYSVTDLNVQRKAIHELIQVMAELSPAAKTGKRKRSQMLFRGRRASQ
The test can be described thus: ELISA, coated cytokine, Ab 10 µg/ml.

The target in test [9] is T9, recombinant human IL-17A (SEQ ID NO: 78) (human, UniProt Q16552 24-155, limits assumed).
T9 construct: homodimer; also called huIL-17A; hulL-17A
T9 sequence: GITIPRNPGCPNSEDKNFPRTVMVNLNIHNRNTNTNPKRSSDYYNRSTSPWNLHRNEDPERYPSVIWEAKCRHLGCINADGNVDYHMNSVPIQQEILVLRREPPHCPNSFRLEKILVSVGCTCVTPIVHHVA
Nature of the test: SPR (Biacore), captured antibody, antigen as analyte. (Surface plasmon resonance follows binding to a sensor surface in real time, without labels.)

In test [10] the target is T10, recombinant human IL-17A/F heterodimer (human, UniProt Q16552 24-155; Q96PD4 31-163, limits assumed).
T10 construct: heterodimer of an IL-17A subunit and an IL-17F subunit; also called huIL-17A/F; rhuIL-17A/F
T10 sequence (looked up) 1: T9 sequence
T10 sequence (looked up) 2: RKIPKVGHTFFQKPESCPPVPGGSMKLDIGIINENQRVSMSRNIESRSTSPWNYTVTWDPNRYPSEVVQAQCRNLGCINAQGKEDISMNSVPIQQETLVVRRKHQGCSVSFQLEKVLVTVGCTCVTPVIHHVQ
The test is described as above.

Test [11] has as its target T11, recombinant mouse IL-17A/F (R&D Systems Cat#5390-IL) (mouse, UniProt Q62386 26-158; Q7TNI7 29-161, limits assumed).
T11 construct: bought heterodimer; also called mIL-17A/F; rmIL-17A/F
T11 sequence (looked up) 1: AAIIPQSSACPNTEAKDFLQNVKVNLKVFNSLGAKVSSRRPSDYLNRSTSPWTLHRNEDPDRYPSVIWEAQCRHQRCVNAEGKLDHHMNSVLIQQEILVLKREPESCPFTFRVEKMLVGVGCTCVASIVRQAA
T11 sequence (looked up) 2: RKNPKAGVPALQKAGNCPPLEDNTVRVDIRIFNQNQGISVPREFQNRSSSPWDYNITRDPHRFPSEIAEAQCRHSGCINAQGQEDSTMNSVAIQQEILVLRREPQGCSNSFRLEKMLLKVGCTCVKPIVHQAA
The test is described as above.

Test [12] has as its target T12, human IL-17A (construct not stated) (human, UniProt Q16552 24-155, limits assumed).
T12 sequence: T1 sequence
Nature of the test: cell-based or functional assay.

T5 sequence (P35225 35-146 limits assumed): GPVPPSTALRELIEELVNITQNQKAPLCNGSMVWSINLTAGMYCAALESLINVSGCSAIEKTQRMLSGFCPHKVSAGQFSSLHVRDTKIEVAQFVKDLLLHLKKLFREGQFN

B1: XAB4 (antibody, human IgG1, kappa, V domains shown)
VH: EVQLVESGGDLVQPGGSLRLSCAASGFTFSSYWMSWVRQAPGKGLEWVANIKQDGSEKYYVDSVKGRFTISRDNAKNSLYLQMNSLRAEDTAVYYCARDRGSLYYWGQGTLVTVSS
VL: AIQLTQSPSSLSASVGDRVTITCRPSQGINWELAWYQQKPGKAPKLLIYDASSLEQGVPSRFSGSGSGTDFTLTISSLQPEDFATYYCQQFNSYPLTFGGGTKVEIKR
notes: also called MB435 N56Q
In the case of B1, the O.D. is 3.18 O.D in test [1]; 0.015 O.D in [2]; 0.047 O.D in test [3]; 0.018 O.D in test [4]; 0.019 O.D in [5]; -0.001 O.D in test [6]. Further, the figures for the O.D. in test [7] and in [8] were -0.022 O.D and 0.048 O.D, respectively. The values for the Kd in test [9], in test [10] and in test [11] were 0.0057 nM, under 0.011 nM and 0.26 nM, respectively.

B2: XAB1 (antibody, human IgG1, kappa, V domains shown)
VH: B1 VH
VL: B1 VL with N30I, W31S, E32A, Q56N
notes: human IgG1/kappa monoclonal antibody; also called parental XAB1; XAB1 IgG
Consider B2, for which the “IC50, in vitro neutralization, Hu IL-6 sec” value in test [12] came out at 4 nM. Besides, the “IC50, in vitro neutralization, Hu IL-8 sec” value in test [12] came out at 3 nM. The O.D. in test [1] was 2.75 O.D; in test [2] it was -0.11 O.D; in [3], 0.057 O.D; in [4], 0.058 O.D; in [5], 0.125 O.D; in test [6] it was -0.086 O.D. Moreover, the O.D. in test [7] amounted to 0.085 O.D; in [8], 0.059 O.D.
